According to patent publication US20250250322A1 (CHILDREN S HOSPITAL OF PHILADELPHIA, published 2025):

Molecular target: T1, Factor IXa (UniProt P00740 47-191; P00740 227-461)
T1 construct: also called FIXa
Assay: functional Kd from intrinsic Xase FXa-generation assay; 0.25 nM FVIIIa, 0-20 nM FIXa, 200 nM FX, 20 uM phospholipids
Description: Kinetic analysis of FXa generation was performed by an intrinsic Xase assay, as described with modifications (Wilhelm, et al. (2021) Blood 137:2532-2543; Lollar, et al. (1989) Biochemistry 28 (2): 666-674). Activated FVIII (FVIIIa) was generated by incubating 25 nM FVIII with 100 nM thrombin for 30 seconds and thereafter quenched with hirudin (150 nM). […] At various time intervals (0.25-2 minutes), aliquots of the reaction mixture were quenched in 20 mM HEPES, 150 mM NaCl, 25 mM EDTA, 0.1% polyethylene glycol-8000, pH 7.4. The amount of FXa in each quenched sample was assessed using Spectrozyme® Xa by measuring absorbance at 405 nm in SpectraMax® 190 Microplate reader (Molecular Devices) and comparing the results to a prepared FXa standard curve.
TABLE 1 Biochemical Characterization of FVIII Proteins. Specific activity was determined by an aPTT based clotting assay measurement of clotting activity relative to protein concentration. Kinetic values were determined for FX activation by an intrinsic Xase assay using equimolar FVIIIa and FIXa (0.25 nM) 0.25 nM FVIIIa, 0.25 nM or 0-20 nM FIXa and 0-500 nM FX in the presence of 20 μM phospholipids. […] Data are represented as means ± SEM from at least two independent experiments.

T1 sequence (P00740 47-191 limits assumed, form in doubt, chain 1 of 2): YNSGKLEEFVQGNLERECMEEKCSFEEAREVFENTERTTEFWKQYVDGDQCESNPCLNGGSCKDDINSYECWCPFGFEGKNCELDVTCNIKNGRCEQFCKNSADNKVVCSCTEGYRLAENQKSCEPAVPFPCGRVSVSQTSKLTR
T1 sequence (P00740 227-461 limits assumed, form in doubt, chain 2 of 2): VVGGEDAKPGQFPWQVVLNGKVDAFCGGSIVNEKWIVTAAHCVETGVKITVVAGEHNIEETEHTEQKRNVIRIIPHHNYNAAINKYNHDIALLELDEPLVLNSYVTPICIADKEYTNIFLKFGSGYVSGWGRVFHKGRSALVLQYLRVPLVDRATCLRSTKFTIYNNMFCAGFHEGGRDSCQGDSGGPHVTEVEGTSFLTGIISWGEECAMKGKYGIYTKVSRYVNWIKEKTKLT

Binder | Kd [nM]
FVIIIa-QQVV (thrombin-activated B-domain deleted FVIII R336Q/R562Q/D519V/E665V) (other, also called FVIII-QQVV; FVIII-QQ/VV) chain 1: ATRRYYLGAVELSWDYMQSDLGELPVDARFPPRVPKSFPFNTSVVYKKTLFVEFTDHLFNIAKPRPPWMGLLGPTIQAEVYDTVVITLKNMASHPVSLHAVGVSYWKASEGAEYDDQTSQREKEDDKVFPGGSHTYVWQVLKENGPMASDPLCLTYSYLSHVDLVKDLNSGLIGALLVCREGSLAKEKTQTLHKFILLFAVFDEGKSWHSETKNSLMQDRDAASARAWPKMHTVNGYVNRSLPGLIGCHRKSVYWHVIGMGTTPEVHSIFLEGHTFLVRNHRQASLEISPITFLTAQTLLMDLGQFLLFCHISSHQHDGMEAYVKVDSCPEEPQLQMKNNEEAEDYDDDLTDSEMDVVRFDDDNSPSFIQIR chain 2: SVAKKHPKTWVHYIAAEEEDWDYAPLVLAPDDRSYKSQYLNNGPQRIGRKYKKVRFMAYTDETFKTREAIQHESGILGPLLYGEVGDTLLIIFKNQASRPYNIYPHGITDVRPLYSRRLPKGVKHLKDFPILPGEIFKYKWTVTVEVGPTKSDPRCLTRYYSSFVNMERDLASGLIGPLLICYKESVDQQGNQIMSDKRNVILFSVFDENRSWYLTENIQRFLPNPAGVQLEDPEFQASNIMHSINGYVFDSLQLSVCLHEVAYWYILSIGAQTDFLSVFFSGYTFKHKMVYVDTLTLFPFSGETVFMSMENPGLWILGCHNSDFRNRGMTALLKVSSCDKNTGDYYEDSYEDISAYLLSKNNAIEPR chain 3: SFQKKTRHYFIAAVERLWDYGMSSSPHVLRNRAQSGSVPQFKKVVFQEFTDGSFTQPLYRGELNEHLGLLGPYIRAEVEDNIMVTFRNQASRPYSFYSSLISYEEDQRQGAEPRKNFVKPNETKTYFWKVQHHMAPTKDEFDCKAWAYFSDVDLEKDVHSGLIGPLLVCHTNTLNPAHGRQVTVQEFALFFTIFDETKSWYFTENMERNCRAPCNIQMEDPTFKENYRFHAINGYIMDTLPGLVMAQDQRIRWYLLSMGSNENIHSIHFSGHVFTVRKKEEYKMALYNLYPGVFETVEMLPSKAGIWRVECLIGEHLHAGMSTLFLVYSNKCQTPLGMASGHIRDFQITASGQYGQWAPKLARLHYSGSINAWSTKEPFSWIKVDLLAPMIIHGIKTQGARQKFSSLYISQFIIMYSLDGKKWQTYRGNSTGTLMVFFGNVDSSGIKHNIFNPPIIARYIRLHPTHYSIRSTLRMELMGCDLNSCSMPLGMESKAISDAQITASSYFTNMFATWSPSKARLHLQGRSNAWRPQVNNPKEWLQVDFQKTMKVTGVTTQGVKSLLTSMYVKEFLISSSQDGHQWTLFFQNGKVKVFQGNQDSFTPVVNSLDPPLLTRYLRIHPQSWVHQIALRMEVLGCEAQDLY | 1.2
FVIIIa-VV (thrombin-activated B-domain deleted FVIII D519V/E665V) (other, also called FVIII-VV) chain 1: ATRRYYLGAVELSWDYMQSDLGELPVDARFPPRVPKSFPFNTSVVYKKTLFVEFTDHLFNIAKPRPPWMGLLGPTIQAEVYDTVVITLKNMASHPVSLHAVGVSYWKASEGAEYDDQTSQREKEDDKVFPGGSHTYVWQVLKENGPMASDPLCLTYSYLSHVDLVKDLNSGLIGALLVCREGSLAKEKTQTLHKFILLFAVFDEGKSWHSETKNSLMQDRDAASARAWPKMHTVNGYVNRSLPGLIGCHRKSVYWHVIGMGTTPEVHSIFLEGHTFLVRNHRQASLEISPITFLTAQTLLMDLGQFLLFCHISSHQHDGMEAYVKVDSCPEEPQLRMKNNEEAEDYDDDLTDSEMDVVRFDDDNSPSFIQIR chain 2: SVAKKHPKTWVHYIAAEEEDWDYAPLVLAPDDRSYKSQYLNNGPQRIGRKYKKVRFMAYTDETFKTREAIQHESGILGPLLYGEVGDTLLIIFKNQASRPYNIYPHGITDVRPLYSRRLPKGVKHLKDFPILPGEIFKYKWTVTVEVGPTKSDPRCLTRYYSSFVNMERDLASGLIGPLLICYKESVDQRGNQIMSDKRNVILFSVFDENRSWYLTENIQRFLPNPAGVQLEDPEFQASNIMHSINGYVFDSLQLSVCLHEVAYWYILSIGAQTDFLSVFFSGYTFKHKMVYVDTLTLFPFSGETVFMSMENPGLWILGCHNSDFRNRGMTALLKVSSCDKNTGDYYEDSYEDISAYLLSKNNAIEPR chain 3: SFQKKTRHYFIAAVERLWDYGMSSSPHVLRNRAQSGSVPQFKKVVFQEFTDGSFTQPLYRGELNEHLGLLGPYIRAEVEDNIMVTFRNQASRPYSFYSSLISYEEDQRQGAEPRKNFVKPNETKTYFWKVQHHMAPTKDEFDCKAWAYFSDVDLEKDVHSGLIGPLLVCHTNTLNPAHGRQVTVQEFALFFTIFDETKSWYFTENMERNCRAPCNIQMEDPTFKENYRFHAINGYIMDTLPGLVMAQDQRIRWYLLSMGSNENIHSIHFSGHVFTVRKKEEYKMALYNLYPGVFETVEMLPSKAGIWRVECLIGEHLHAGMSTLFLVYSNKCQTPLGMASGHIRDFQITASGQYGQWAPKLARLHYSGSINAWSTKEPFSWIKVDLLAPMIIHGIKTQGARQKFSSLYISQFIIMYSLDGKKWQTYRGNSTGTLMVFFGNVDSSGIKHNIFNPPIIARYIRLHPTHYSIRSTLRMELMGCDLNSCSMPLGMESKAISDAQITASSYFTNMFATWSPSKARLHLQGRSNAWRPQVNNPKEWLQVDFQKTMKVTGVTTQGVKSLLTSMYVKEFLISSSQDGHQWTLFFQNGKVKVFQGNQDSFTPVVNSLDPPLLTRYLRIHPQSWVHQIALRMEVLGCEAQDLY | 1.6
